Where two headings read alike, the source gives them in different places.
Legend:
Test in all cases: EMSA
[1] = molecular target: T1, RBPMS2 (UniProt Q6ZRY4 1-209)
[2] = molecular target: RBPMS 1-100 (Homo sapiens, UniProt Q93062 1-100)
[3] = molecular target: RBPMS 1-144 (Homo sapiens, UniProt Q93062 1-144)
[4] = molecular target: T2, RBPMS isoform A (Homo sapiens, UniProt Q93062 1-196)
[5] = molecular target: T2, RBPMS isoform A; remark: listed apart in the source
[6] = molecular target: T1, RBPMS2; remark: listed apart in the source
[7] = molecular target: T2, RBPMS isoform A; remark: listed apart in the source

T1 sequence (Q6ZRY4 whole entry): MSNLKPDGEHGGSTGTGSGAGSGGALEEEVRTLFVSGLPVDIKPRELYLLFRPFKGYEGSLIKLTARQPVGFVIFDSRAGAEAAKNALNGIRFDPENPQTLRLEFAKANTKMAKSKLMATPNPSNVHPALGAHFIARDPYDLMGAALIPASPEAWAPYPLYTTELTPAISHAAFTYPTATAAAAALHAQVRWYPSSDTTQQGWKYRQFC

Row | Binder | binding result [1] | binding result [5] | further results
1 | ACACACACACACACACAC (ssRNA) [(AC)9] | binds |  | binding result [2]: no binding; binding result [3]: binds; binding result [4]: binds
2 | AAAAAAAAAAAAAAAAAA (ssRNA) [A18] |  | no binding | 
3 | UUUUUUUUUUUUUUUUUU (ssRNA) [U18] |  | no binding | 
4 | CACCACCACCACCACCAC (ssRNA) [(CAC)6] | binds | binds | 
5 | AGAGAGAGAGAGAGAGAG (ssRNA) [(AG)9] |  | no binding | 
6 | AGGCACUUUCAACUUCACUCC (ssRNA) [ETF1 21-nt wt] |  | binds | binding result [6]: binds
7 | CCCUCACUCACCAAACACGUG (ssRNA) [UBE2V1 or SRM 21-nt wt (b)] |  | binds | 
8 | GCCGCCGCCGCCGCCGCC (ssRNA) [(GCC)6] |  | no binding | 
9 | ACACACACACACAC (ssRNA) [(AC)7] |  |  | binding result [7]: binds
10 | CAUCAUCAUCAUCAUCAU (ssRNA) [(CAU)6] | no binding | no binding | 
11 | GGCGGCGGCGGCGGCGGC (ssRNA) [(GGC)6] |  | no binding | 
12 | CUCUCUCUCUCUCUCUCU (ssRNA) [(CU)9] | no binding | no binding | 
13 | UACUCACUCACUCUCCACGAG (ssRNA) [UBE2V1 or SRM 21-nt wt (a)] |  | binds | 

From article PMC4114688
